According to PMC3571872 (Molecular Biology of the Cell, 2013):
Square brackets hold non-standard residues; d marks the D form. pS = N[C@@H](COP(=O)(O)O)C(=O)O

B1: Gga2p VHS-GAT-His6 (domain or fragment, yeast, UniProt P38817 1-336, looked up)
chain: MSHPHSHSIYLSELPVRKPQALGNPLLRKIQRACRMSLAEPDLALNLDIADYINEKQGAAPRDAAIALAKLINNRESHVAIFALSLLDVLVKNCGYPFHLQISRKEFLNELVKRFPGHPPLRYSKIQRLILTAIEEWYQTICKHSSYKNDMGYIRDMHRLLKYKGYAFPKISESDLAVLKPSNQLKTASEIQKEQEIAQAAKLEELIRRGKPEDLREANKLMKIMAGFKEDNAVQAKQAISSELNKLKRKADLLNEMLESPDSQNWDNETTQELHSALKVAQPKFQKIIEEEQEDDALVQDLLKFNDTVNQLLEKFNLLKNGDSNAASQIHPSHVS
B2: Phosphopeptide PP2 (peptide)
peptide: Ac-CTNENPF[pS]DPIKQKF-NH2
SMILES: CC[C@H](C)[C@H](NC(=O)[C@@H]1CCCN1C(=O)[C@H](CC(=O)O)NC(=O)[C@H](COP(=O)(O)O)NC(=O)[C@H](Cc1ccccc1)NC(=O)[C@@H]1CCCN1C(=O)[C@H](CC(N)=O)NC(=O)[C@H](CCC(=O)O)NC(=O)[C@H](CC(N)=O)NC(=O)[C@@H](NC(=O)[C@H](CS)NC(C)=O)[C@@H](C)O)C(=O)N[C@@H](CCCCN)C(=O)N[C@@H](CCC(N)=O)C(=O)N[C@@H](CCCCN)C(=O)N[C@@H](Cc1ccccc1)C(N)=O
B3: S780D GST-Kex2p C-tail fusion protein (domain or fragment, yeast, UniProt P13134 700-814, looked up)
chain: KSRRRIRRSRAETYEFDIIDTDSEYDSTLDNGTSGITEPEEVEDFDFDLSDEDHLASLSSSENGDAEHTIDSVLTNENPFDDPIKQKFPNDANAESASNKLQELQPDVPPSSGRS
B4: WT GST-Kex2p C-tail fusion protein (domain or fragment, yeast, UniProt P13134 700-814, looked up)
chain: KSRRRIRRSRAETYEFDIIDTDSEYDSTLDNGTSGITEPEEVEDFDFDLSDEDHLASLSSSENGDAEHTIDSVLTNENPFSDPIKQKFPNDANAESASNKLQELQPDVPPSSGRS

How the values were obtained:
[1] = molecular target: S780A GST-Kex2p C-tail fusion protein (yeast) (UniProt P13134); assay: ITC
[2] = molecular target: S780A GST-Kex2p C-tail fusion protein (yeast) (UniProt P13134); assay: pull-down
[3] = molecular target: B3; assay: pull-down
Gga2p VHS-GAT-His6 [4] = molecular target: B1; assay: pull-down
Gga2p VHS-GAT-His6 [5] = molecular target: B1; assay: ITC

Molecule	binding result (Gga2p VHS-GAT-His6 [4])	Kd (Gga2p VHS-GAT-His6 [5]) [µM]	other results
Gga2p VHS-GAT-His6 (from UniProt P38817 1-336) (domain or fragment)			Kd [1]: 400 µM; fold lower binding than the WT tail [2]: 2 fold; t1/2 of dissociation [2]: 40 min
B1			fold higher binding than the WT tail [3]: 2 fold
B2	binds		
B3		6.6	
B4		10	
Ac-CLTNENPFSDPIKQKF-NH2 [Nonphosphorylated peptide NPP]	binds		
